# Assay results from patent publication US20210121565A1 (Eli Lilly, published 2021).
# B1: Exemplified anti-Tau antibody (having both HCs of SEQ ID NO.2 and both LCs of SEQ ID NO.1) (antibody, human IgG4 S228P, kappa, F234A L235A, V domains shown)
# VH: EVQLVQSGAEVKKPGESLKISCKGSGYTFSNYWIEWVRQMPGKGLEWMGEILPGSDSIKYEKNFKGQVTISADKSISTAYLQWSSLKASDTAMYYCARRGNYVDDWGQGTLVTVSS
# VL: EIVLTQSPGTLSLSPGERATLSCRSSQSLVHSNQNTYLHWYQQKPGQAPRLLIYKVDNRFSGIPDRFSGSGSGTDFTLTISRLEPEDFAVYYCSQSTLVPLTFGGGTKVEIKR
# notes: It was expressed in CHO cells; also called Exemplified anti-Tau mAb; exemplified tau monoclonal antibody
# Assays:
# [1] = target: T1, aggregate tau fibrils purified from AD brain homogenates (MC1-affinity purified) (human, UniProt P10636-8 2-441, limits assumed); experiment: ELISA, purified AD tau fibrils coated on plate, anti-human IgG-HRP detection
# T1 construct: Brain-derived material coated on ELISA plates at 0.7 ug/ml total tau; also called Purified AD Tau Fibrils; purified tau fibrils
# T1 sequence (P10636 other isoform, or with tags, fused parts or gaps limits assumed): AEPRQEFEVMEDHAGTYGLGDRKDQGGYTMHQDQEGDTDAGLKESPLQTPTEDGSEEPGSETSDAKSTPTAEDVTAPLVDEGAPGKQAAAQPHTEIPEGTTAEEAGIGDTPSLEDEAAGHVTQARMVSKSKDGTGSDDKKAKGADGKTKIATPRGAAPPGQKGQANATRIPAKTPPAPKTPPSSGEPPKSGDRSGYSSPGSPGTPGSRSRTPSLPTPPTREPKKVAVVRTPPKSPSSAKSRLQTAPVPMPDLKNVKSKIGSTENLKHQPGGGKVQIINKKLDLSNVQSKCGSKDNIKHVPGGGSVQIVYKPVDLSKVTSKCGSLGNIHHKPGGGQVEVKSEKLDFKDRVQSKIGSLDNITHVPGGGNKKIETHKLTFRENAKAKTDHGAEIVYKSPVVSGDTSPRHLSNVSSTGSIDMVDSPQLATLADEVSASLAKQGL
# Method: Enzyme-Linked Immunosorbant Assay (ELISA) is used to determine relative binding affinity of the exemplified anti-Tau antibody (having both HCs of SEQ ID NO.2 and both LCs of SEQ ID NO.1) to aggregate tau fibrils from AD brain homogenates. AD brain homogenates are prepared from approx. 80 g of cortex from brain of AD patients. Briefly, buffer (TBS/1 mM PMSF/1× Complete® protease inhibitor cocktail (Roche, p/n. 11 697 498 001) and phosphatase inhibitor (ThermoFischer, p/n. 78428)) is added to the AD brain tissue at about 10 ml/1 g (tissue). Tissue is homogenized using a handheld Kinematica Polytron at speed 6-7. Tissue is then further homogenized using Parr Bomb (Parr Instrument, p/n. 4653) at 1500 psi of nitrogen for 30 mins. Homogenate is spun at 28,000 g (J14 Beckman rotor) for 30 min at 4° C. Supernatant is collected, pooled and run over a 4 cm high guard column of Sepharose 400 Superflow to remove larger debris, then run over 25 ml MC1-Affigel 10 column at a flow rate of 50-60 ml per hour, in order to purify MC1-binding tau fibrils. To maximize the recovery of purification, supernatants are recycled through MC-1 column over 18-20 hours at 4° C. […] The concentration of tau within the tau fibrils purified from AD brain homogenate is measured by sandwich ELISA using DA-9 capture antibody and CP27 detection antibody. […]
# [2] = target: T2, human monomeric (native or non-aggregate) tau (human, UniProt P10636 2-758); experiment: SPR (Biacore 2000, 25 C), antibody captured on protein A, tau as analyte, steady state fit
# T2 construct: No tag or expression host is stated; also called Monomeric Tau; monomeric tau
# T2 sequence (P10636 other isoform, or with tags, fused parts or gaps limits assumed): as above
# Method: (§1) Surface Plasmon Resonance (SPR) assay, measured with a BIACORE® 2000 instrument (primed with HBS-EP+running buffer (GE Healthcare, 10 mM Hepes pH7.4+150 mM NaCl+3 mM EDTA+0.05% surfactant P20) at 25° C.), is used to measure binding of an exemplified anti-Tau antibody (having both HCs of SEQ ID NO.2 and both LCs of SEQ ID NO.1) to both human monomeric (e.g., native or non-aggregate) tau and human tau aggregates (both having the amino acid sequence as set forth in SEQ ID NO.13).
# (§2) Except as noted, all reagents and materials are from BIACORE® AB (Upsala, Sweden). A CMS chip containing immobilized protein A (generated using standard NHS-EDC amine coupling) on all four flow cells (FC) is used to employ a capture methodology. Antibody samples are prepared at 0.5 μg/mL by dilution into running buffer. […]
# (§3) Data of binding to tau aggregate is processed using standard double-referencing and fit to a 1:1 binding model using Biacore 2000 Evaluation software, version 4.1, to determine the association rate (kₒₙ, M⁻¹s⁻¹ units), dissociation rate (koff, s⁻¹ units), and Rₘₐₓ (RU units). The equilibrium dissociation constant (KD) was calculated from the relationship KD=koff/kₒₙ, and is in molar units. Data of binding to monomeric tau cannot be determined accurately by SPR as described above due to rapid on- and off-rates. […]
# [3] = target: T3, human tau aggregates (amino acid sequence of SEQ ID NO.13) (human, UniProt P10636 2-758); experiment: SPR (Biacore 2000, 25 C), antibody captured on protein A, tau aggregate as analyte, 1:1 fit
# T3 construct: also called fibril tau; tau fibril aggregate
# T3 sequence (P10636 other isoform, or with tags, fused parts or gaps limits assumed): as above
# Method: as §1, §2, §3
# [4] = target: T3, human tau aggregates (amino acid …); experiment: SPR (Biacore 2000, 25 C), antibody captured on protein A, tau aggregate as analyte, KD=koff/kon, not normalized for avidity
# Method: as §1, §2, §3
binder,measurement,setting,value
B1,EC50,[1],0.0068 nM
same,Kd,[2],235 nM
same,koff,[3],< 1e-05 s⁻¹
same,kon,[3],45900 M⁻¹ s⁻¹
same,Kd,[4],< 0.22 nM
